T1: (ABI3-5Sup-ZF)x2 (Arabidopsis thaliana, UniProt F4JCU0 379-406)
T1 chain: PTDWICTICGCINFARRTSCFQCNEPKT

T2: (hRBM10-ZF)x2 (Homo sapiens, UniProt P98175 212-243)
T2 chain: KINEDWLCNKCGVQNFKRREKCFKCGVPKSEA

T3: (FUS-ZF)x2 (Xenopus laevis, UniProt Q7ZXQ2 435-467)
T3 chain: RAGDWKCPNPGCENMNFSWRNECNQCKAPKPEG

T4: (mRBM10-ZF N4D)x2 (Mus musculus, UniProt Q99KG3-2 135-166+=GSGSG+135-166, V161M;internal_change)
T4 sequence: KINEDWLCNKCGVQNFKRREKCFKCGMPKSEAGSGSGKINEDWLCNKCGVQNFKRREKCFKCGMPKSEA

T5: (ZRANB1-B-ZF)x2 (Danio rerio, UniProt A0JMQ9 152-182)
T5 chain: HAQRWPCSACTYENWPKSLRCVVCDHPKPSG


Experiments:
(ABI3-5Sup-ZF)x2 [1] = target: T1, (ABI3-5Sup-ZF)x2; assay: BLI; ITC: 50 mM Tris pH 7.5, 150 mM NaCl, 1 mM DTT, 0.1 mM ZnCl2, 25 °C; BLI: 50 mM Tris pH 7.5, 150 mM NaCl, 1 mM DTT, 0.1% BSA, 0.02% Tween, 30 °C; conditions: protein: recombinant; tags: GST cleaved (HRV-3C); label: 5' biotin
(hRBM10-ZF)x2 = target: T2, (hRBM10-ZF)x2; assay: as above; conditions: protein: recombinant; tags: GST cleaved (HRV-3C); label: 5' biotin
(FUS-ZF)x2 [2] = target: T3, (FUS-ZF)x2; assay: as above; conditions: protein: recombinant; tags: GST cleaved (HRV-3C); label: 5' biotin
(EWS-ZF)x2 [3] = target: T6, (EWS-ZF)x2 (Homo sapiens, UniProt Q01844-5 523-555); assay: as above; conditions: protein: recombinant; tags: GST cleaved (HRV-3C); label: 5' biotin
(mRBM10-ZF N4D)x2 = target: T4, (mRBM10-ZF N4D)x2; assay: as above; conditions: protein: recombinant; tags: GST cleaved (HRV-3C); label: 5' biotin
(ABI3-5Sup-ZF)x2 [4] = target: T1, (ABI3-5Sup-ZF)x2; assay: ITC; ITC: 50 mM Tris pH 7.5, 150 mM NaCl, 1 mM DTT, 0.1 mM ZnCl2, 25 °C; BLI: 50 mM Tris pH 7.5, 150 mM NaCl, 1 mM DTT, 0.1% BSA, 0.02% Tween, 30 °C; conditions: protein: recombinant; tags: GST cleaved (HRV-3C)
(FUS-ZF)x2 [5] = target: T3, (FUS-ZF)x2; assay: as above; conditions: protein: recombinant; tags: GST cleaved (HRV-3C)
(EWS-ZF)x2 [6] = target: T6, (EWS-ZF)x2; assay: as above; conditions: protein: recombinant; tags: GST cleaved (HRV-3C)
(ZRANB1-B-ZF)x2 = target: T5, (ZRANB1-B-ZF)x2; assay: as above; conditions: protein: recombinant; tags: GST cleaved (HRV-3C)

T6 sequence (Q01844 518-550): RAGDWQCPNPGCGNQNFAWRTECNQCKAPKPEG

Binder | Kd ((ABI3-5Sup-ZF)x2 [1]) | Kd ((hRBM10-ZF)x2) | binding result ((FUS-ZF)x2 [2]) | binding result ((EWS-ZF)x2 [3]) | binding result ((ABI3-5Sup-ZF)x2 [1]) | binding result ((hRBM10-ZF)x2) | also measured
AAAGGAGGAAAA (ssRNA) [(GGA)x2 biotin] | 2600 ± 1000 nM | 1400 ± 10 nM | no binding | no binding |  |  | 
AAAGGGGGGAAA (ssRNA) [(GGG)x2 biotin] | 3000 ± 500 nM | 300 ± 30 nM |  |  |  |  | Kd ((mRBM10-ZF N4D)x2): 400 ± 30 nM; Kd ((FUS-ZF)x2 [2]): 1100 ± 300 nM; Kd ((EWS-ZF)x2 [3]): 1100 ± 10 nM
AAAGGUGGUAAA (ssRNA) [(GGU)x2] |  |  |  |  |  |  | Kd ((ABI3-5Sup-ZF)x2 [4]): 700 ± 100 nM; Kd ((FUS-ZF)x2 [5]): 200 ± 20 nM; Kd ((EWS-ZF)x2 [6]): 200 ± 30 nM; binding result ((ZRANB1-B-ZF)x2): no binding
AAAGGAGGAAAA (ssRNA) [(GGA)x2] |  |  |  |  |  |  | Kd ((ABI3-5Sup-ZF)x2 [4]): 1000 ± 100 nM
AAAGAUGAUAAA (ssRNA) [(GAU)x2 biotin] |  |  | no binding | no binding | no binding | no binding | 
AAAAAAAAAAAA (ssRNA) [polyA control 12-mer] |  |  |  |  |  |  | binding result ((ZRANB1-B-ZF)x2): no binding
AAAAGUAGUAAA (ssRNA) [(AGU)x2 biotin] |  |  | no binding | no binding | no binding | no binding | 
AAAAAAAAAAAA (ssRNA) [(AAA)x2 biotin] |  |  | no binding | no binding | no binding | no binding | 
AAAGGUGGUAAA (ssRNA) [(GGU)x2 biotin] | 1000 ± 10 nM | 500 ± 10 nM |  |  |  |  | Kd ((FUS-ZF)x2 [2]): 800 ± 70 nM; Kd ((EWS-ZF)x2 [3]): 800 ± 60 nM
AAAGGCGGCAAA (ssRNA) [(GGC)x2 biotin] |  | 2600 ± 30 nM | no binding | no binding |  |  | 

Source: PMC6384913, “Exploring the suitability of RanBP2-type Zinc Fingers for RNA-binding protein design”
